Experimental findings from patent publication US20090048117 are described below.

The subject of series [1] is T1, GST-NIP45 fusion protein (bacterially expressed, full length NIP45).
T1 sequence: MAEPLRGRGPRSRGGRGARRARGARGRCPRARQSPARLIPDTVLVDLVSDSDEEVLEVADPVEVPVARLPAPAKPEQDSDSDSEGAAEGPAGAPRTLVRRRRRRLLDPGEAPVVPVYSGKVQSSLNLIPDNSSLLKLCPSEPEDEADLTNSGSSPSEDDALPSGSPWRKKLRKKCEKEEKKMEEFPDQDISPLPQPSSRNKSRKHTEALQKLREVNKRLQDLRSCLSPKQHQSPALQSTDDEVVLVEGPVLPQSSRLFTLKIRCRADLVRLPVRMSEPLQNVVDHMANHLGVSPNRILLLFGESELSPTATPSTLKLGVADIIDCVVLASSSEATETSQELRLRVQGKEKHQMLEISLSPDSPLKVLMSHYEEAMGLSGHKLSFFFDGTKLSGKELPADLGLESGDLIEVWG

Turning to “Flag epitope tagged CARM1 immunoprecipitated from 293 cell extracts”, in series [1], the “in vitro methylation assay with affinity purified PRMTs and GST-NIP45” value is reported as “In this assay, only PRMT1 was capable of methylating NIP45”.
Take “Flag epitope tagged PRMT3 immunoprecipitated from 293 cell extracts”: the “in vitro methylation assay with affinity purified PRMTs and GST-NIP45” value in series [1] was “In this assay, only PRMT1 was capable of methylating NIP45”.
For the substance “Flag epitope tagged PRMT5 immunoprecipitated from 293 cell extracts”, in series [1], the “in vitro methylation assay with affinity purified PRMTs and GST-NIP45” value was “In this assay, only PRMT1 was capable of methylating NIP45”.
Consider GST-CARM1, for which the “in vitro methylation assay with recombinant proteins” value in the series on Histone H3 was “CARM1 did methylate histone H3 (lane 7)”.
